The record followed here is doi:10.1101/2024.12.18.629111 (bioRxiv, 2024).

One may read the stoichiometry N as the number of molecules, sites or subunits per partner or assembly. What is called Kd is the free concentration of one partner at which half of the binding sites on the other are occupied at equilibrium, for simple one-to-one binding.

B1: CBP-Upf1-CH-His (domain or fragment)
chain: SPSASDNSCAYCGIDSAKCVIKCNSCKKWFCNTKNGTSSSHIVNHLVLSHHNVVSLHPDSDLGDTVLECYNCGRKNVFLLGFVSAKSEAVVVLLCRIPCAQTKNANWDTDQWQPLIEDRQLLSWVAEQPTEEEKLKARLITPSQISKLEAKWRSNKDATINDIDAPE
B2: CBP-Upf1-Ct (domain or fragment, S. cerevisiae, UniProt P30771 852-971, looked up)
chain: PQPRKTERPMNAQFNVESEMGDFPKFQDFDAQSMVSFSGQIGDFGNAFVDNTELSSYINNEYWNFENFKSAFSQKQNRNEIDDRNLYQEEASHLNSNFARELQREEQKHELSKDFSNLGI
B3: Upf2(933-1089)-His (domain or fragment, S. cerevisiae, UniProt P38798 933-1089, looked up)
chain: SDSDLEYGGDLDADRDIEMKRMYEEYERKLKDEEERKAEEELERQFQKMMQESIDARKSEKVVASKIPVISKPVSVQKPLLLKKSEEPSSSKETYEELSKPKKIAFTFLTKSGKKTQSRILQLPTDVKFVSDVLEEEEKLKTERNKIKKIVLKRSFD
B4: His-tagged Nmd4 (natural protein, S. cerevisiae, UniProt Q12129 1-218, looked up)
chain: MTQYNFIIDASAFEKGLGNIKRWCSDCTEAVTLNFYIPTFTLNELDFLQQRRKSFAARESLKFIDRLDDSKFANLKVFIEFPEVLDIILWSDVMEHNDSSGKINIAKLPKRLKNLLKSCIYKCYLEGNEGLHWFLISEDPQIREMAMQCNIPSCSIVDVDSILSKDMNDKSFRESEKFNNMMLKNGTKEESENGREIIRTNFNKTVYASRGTGELWSP

Series [1] concerns the molecule itself. Briefly: SDS-PAGE band of the dimer.
In series [2] the target is B3. Briefly: fluorescence polarisation.
Series [3] concerns the target T1, FITC-labeled Dcp2-UBD1 peptide (aa 456-479) (S. cerevisiae, UniProt P53550 456-479, FITC on the N-terminus).
T1 peptide (looked up): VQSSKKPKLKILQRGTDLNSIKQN
As to the kind of experiment: fluorescence polarisation. (In fluorescence polarisation assays a small probe gives low polarisation when free and higher when bound to something large.)

The target in series [4] is T2, FITC-labeled Dcp2-UBD2 peptide (aa 694-718) (S. cerevisiae, UniProt P53550 694-718, FITC on the N-terminus).
T2 peptide (looked up): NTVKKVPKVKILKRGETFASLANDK
As to the kind of experiment: fluorescence polarisation.

Series [5] concerns the target T3, GST-Ebs1 (aa 1-591) (S. cerevisiae, UniProt Q03466 1-591).
T3 sequence (looked up): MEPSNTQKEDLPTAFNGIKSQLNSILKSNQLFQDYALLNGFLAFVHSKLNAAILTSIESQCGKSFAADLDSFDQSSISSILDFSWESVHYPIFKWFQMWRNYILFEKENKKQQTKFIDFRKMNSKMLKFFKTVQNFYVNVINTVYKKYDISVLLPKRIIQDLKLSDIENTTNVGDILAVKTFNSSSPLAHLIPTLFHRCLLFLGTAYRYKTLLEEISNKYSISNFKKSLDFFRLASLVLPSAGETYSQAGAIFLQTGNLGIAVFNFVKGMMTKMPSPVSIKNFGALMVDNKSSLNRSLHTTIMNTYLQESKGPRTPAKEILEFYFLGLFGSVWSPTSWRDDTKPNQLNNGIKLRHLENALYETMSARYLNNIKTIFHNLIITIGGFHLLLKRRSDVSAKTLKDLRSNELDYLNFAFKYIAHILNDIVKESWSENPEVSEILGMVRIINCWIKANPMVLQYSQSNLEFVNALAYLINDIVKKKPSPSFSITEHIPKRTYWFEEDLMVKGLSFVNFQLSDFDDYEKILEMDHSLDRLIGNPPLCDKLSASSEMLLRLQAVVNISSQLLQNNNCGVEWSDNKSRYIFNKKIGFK
Briefly: pull-down.

Series [6] deals with T4, CBP-Upf1-CH-HD I693R (S. cerevisiae, UniProt P30771 54-851, I693R).
T4 sequence (looked up): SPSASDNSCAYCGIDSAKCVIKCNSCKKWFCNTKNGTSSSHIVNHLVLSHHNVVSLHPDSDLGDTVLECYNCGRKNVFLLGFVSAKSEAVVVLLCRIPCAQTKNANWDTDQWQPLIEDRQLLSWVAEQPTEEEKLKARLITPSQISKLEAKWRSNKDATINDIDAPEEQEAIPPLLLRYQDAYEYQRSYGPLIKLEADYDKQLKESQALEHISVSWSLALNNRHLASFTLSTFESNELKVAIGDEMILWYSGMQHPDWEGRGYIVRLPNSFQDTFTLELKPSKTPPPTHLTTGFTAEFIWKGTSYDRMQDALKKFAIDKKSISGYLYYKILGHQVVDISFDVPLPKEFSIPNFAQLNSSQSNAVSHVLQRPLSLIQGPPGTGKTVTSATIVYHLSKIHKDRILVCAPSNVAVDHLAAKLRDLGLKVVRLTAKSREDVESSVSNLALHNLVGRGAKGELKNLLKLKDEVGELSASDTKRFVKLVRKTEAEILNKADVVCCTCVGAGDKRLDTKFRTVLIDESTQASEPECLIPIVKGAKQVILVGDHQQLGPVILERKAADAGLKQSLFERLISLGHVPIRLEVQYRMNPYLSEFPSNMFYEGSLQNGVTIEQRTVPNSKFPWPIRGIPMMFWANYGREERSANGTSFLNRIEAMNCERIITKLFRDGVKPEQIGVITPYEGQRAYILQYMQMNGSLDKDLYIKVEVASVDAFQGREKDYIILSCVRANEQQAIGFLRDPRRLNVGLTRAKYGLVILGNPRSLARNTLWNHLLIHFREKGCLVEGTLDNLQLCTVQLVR
As to the kind of experiment: pull-down.

Series [7] concerns the target T5, CBP-Upf1-FL (S. cerevisiae, UniProt P30771 1-971).
T5 sequence (looked up): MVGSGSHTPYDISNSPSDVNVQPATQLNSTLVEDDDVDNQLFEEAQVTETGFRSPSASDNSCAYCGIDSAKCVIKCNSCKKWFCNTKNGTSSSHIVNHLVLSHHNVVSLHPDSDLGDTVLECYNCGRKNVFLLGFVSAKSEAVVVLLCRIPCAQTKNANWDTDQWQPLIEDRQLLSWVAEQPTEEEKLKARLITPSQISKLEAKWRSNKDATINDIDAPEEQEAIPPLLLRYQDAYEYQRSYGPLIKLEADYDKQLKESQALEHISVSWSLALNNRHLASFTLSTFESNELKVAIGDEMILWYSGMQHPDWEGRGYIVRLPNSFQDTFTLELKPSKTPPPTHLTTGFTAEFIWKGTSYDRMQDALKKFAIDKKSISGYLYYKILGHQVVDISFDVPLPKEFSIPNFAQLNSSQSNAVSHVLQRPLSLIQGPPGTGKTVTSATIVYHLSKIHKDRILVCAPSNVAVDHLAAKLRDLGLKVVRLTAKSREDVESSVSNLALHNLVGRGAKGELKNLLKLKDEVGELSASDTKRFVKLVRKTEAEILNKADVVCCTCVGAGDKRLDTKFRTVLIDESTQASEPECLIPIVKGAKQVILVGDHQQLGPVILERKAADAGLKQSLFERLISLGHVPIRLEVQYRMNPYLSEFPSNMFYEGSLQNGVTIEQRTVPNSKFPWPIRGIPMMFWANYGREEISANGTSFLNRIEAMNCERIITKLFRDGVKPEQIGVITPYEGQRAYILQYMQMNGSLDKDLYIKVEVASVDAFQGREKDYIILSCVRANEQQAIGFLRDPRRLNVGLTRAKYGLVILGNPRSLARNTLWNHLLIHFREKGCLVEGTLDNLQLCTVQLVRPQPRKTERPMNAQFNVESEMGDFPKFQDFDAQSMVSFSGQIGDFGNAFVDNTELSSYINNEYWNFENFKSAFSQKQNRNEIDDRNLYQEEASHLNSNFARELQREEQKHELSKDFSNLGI
Briefly: pull-down.

Series [8] concerns the target T6, CBP-Upf1-CH-HD (S. cerevisiae, UniProt P30771 54-851).
T6 sequence (looked up): T4 sequence (looked up) with R640I
Briefly: native gel or EMSA. On the technique in general: In EMSA bound probe runs differently from free probe, usually more slowly.

Numbering of substitutions follows the chain as printed.

As to B1, the “stoichiometry N” value in series [1] was 2. The dissociation constant Kd in series [2] came to 0.43 µM; in series [3], 60.1 µM; in series [4], 25.1 µM.

Take B2: the binding result in series [5] was “binds”.

For the molecule B3, the binding result in series [6] is “binds”.

For the molecule B4, the binding result in series [7] and in series [8] was “binds” throughout.
